We go through 1 substance from paper PMC10888690.

For the experiment, the target named is SmCAMTA2, split-YFP fusion for BiFC (Solanum melongena (eggplant)).

As to “SmERF1, construct for BiFC (natural protein)”, the LUC/REN ratio of the SmCBF2 promoter-LUC reporter in N. benthamiana leaves when SmERF1-62-SK and SmCAMTA2-62-SK were co-present was 2 fold.
